Data set [1] deals with T1, recombinant A. fumigatus ACP (acyl carrier protein), truncated form, pET30 fusion protein.
T1 chain: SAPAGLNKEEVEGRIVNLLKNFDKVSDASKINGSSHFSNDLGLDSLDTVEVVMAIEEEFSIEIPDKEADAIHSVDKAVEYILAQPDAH

For data set [2], the target named is T2, recombinant C. albicans ACPe (CaO19.9975), pET30 fusion protein.
T2 chain: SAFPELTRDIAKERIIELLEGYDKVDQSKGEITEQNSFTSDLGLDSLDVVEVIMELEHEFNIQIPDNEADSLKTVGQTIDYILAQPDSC

In data set [3] the target is T3, recombinant C. albicans ACPg (CaO19.8439), pET30 fusion protein.
T3 chain: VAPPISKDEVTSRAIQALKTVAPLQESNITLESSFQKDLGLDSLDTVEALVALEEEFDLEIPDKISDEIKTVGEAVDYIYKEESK

Experimental findings from patent US20120196763 are described below.

B1: recombinant C. albicans PPTB (CaO19.4812), expressed from pET43.1 (protein)
chain: MPKVGTVLGIGVDIVNSVRFERLLTAKSTSFGTRLSKRILHPEHELPLFQQMHSQRQAQYLTGSWAAKEALFKTLDLNSQKEFNFNQWYRFHDSNGKPFIWNDRYKLSDEEFHLSISHDDSLVIATVLRQKVYQI
On to B1, for which, in data set [1], the “PPTB activity assay with ACP as substrate” value is recorded as “Assays for C. albicans PPTB activity using A. fumigatus ACP as a substrate gave a poor signal”. The “pantetheinylation of ACP with CoA-Bodipy TMR, SDS-PAGE gel under UV light” value in data set [1] is “ACPe and the A. fumigatus ACP were pantetheinylated weakly”; in data set [2], “ACPe and the A. fumigatus ACP were pantetheinylated weakly”; in data set [3] it was “The C. albicans PPTB pantetheinylated ACPg strongly”.

B2: recombinant A. fumigatus PPTB (phosphopantetheinyl transferase B), PPTB-NusA fusion protein (protein)
chain: MKLIPFPYPLNIGTDVVHLPRILRLINRPDYFHRFTRRILHEQEQRDFRTRFSLPPPSSGAEKTGLNPITPDMARWLAGRFAAKEAARKAAPAGASSLGWKDVIVRVGEADKGRPEIVYLDPMGCGETGGGRVGKLSISHDGDYVVATVLAAG
In the case of B2, the “labelling of ACP with CoA-Bodipy TMR, resolved on SDS-PAGE gel” value in data set [1] is “recombinant PPTB was able to label recombinant ACP (resolved on SDS-PAGE gel) in the presence of magnesium ions and CoA-Bodipy TMR”. In addition, the “pantetheinylation of ACP with CoA-Bodipy TMR, SDS-PAGE gel under UV light” value is “The A. fumigatus PPTB was able to pantetheinylate both A. fumigatus ACP and ACPg” in data set [1]; “whereas ACPe was pantetheinylated weakly” in data set [2]; “The A. fumigatus PPTB was able to pantetheinylate both A. fumigatus ACP and ACPg” in data set [3].
